The numbers were not newly measured in patent US20060122098A1, “System for infusing insulin to a subject to imporve impaired total body tissue glucose processing” (priority 2004, published 2006), which cites them from elsewhere.

For the data set the following is noted: in vivo.

On to insulin, for which the half-life – broadly, how long it takes for the measured level to halve – was 5 min.
